Assay [1] concerns the target T1, human thrombin (human, UniProt P00734 314-363; P00734 364-622). Nature of the assay: estimated from the rate of S2238 hydrolysis by thrombin.
The target in assay [2] is T1, human thrombin. Briefly: cell-based or functional assay.
The target in assay [3] is T1, human thrombin. Briefly: cell-based or functional assay. This is another data set of the same source.
In assay [4] the target is prothrombin (Homo sapiens (Human), UniProt P00734 44-622). Briefly: pull-down with IgA-binding lectin agarose; supernatant on non-reducing SDS-PAGE.
Assay [5] concerns the target T1, human thrombin. Briefly: Biacore, antibody as ligand, ambient condition; Control (ambient condition), not 4° C. storage or light exposure. On the technique in general: SPR reads the build-up and loss of mass on a sensor chip optically.
Assay [6] addresses T1, human thrombin. Briefly: Biacore, antibody as ligand, after storage for one month at 4° C.
The target in assay [7] is T1, human thrombin. Briefly: ELISA binding to thrombin, four-parameter fit (log(agonist) vs. response -- Variable slope). (In general: In an ELISA, binding on a coated surface is turned into a signal by an enzyme label.)
The target of assay [8] is T1, human thrombin. Briefly: Biacore, antibody as ligand, after exposure to light.

Positions count from the first letter of the chain named. Names and notes keep the numbering of the source.

B1: wild-type anti-exosite 1 IgA antibody (antibody, V domains shown)
VH: QVQLIQSGSAVKKPGASVRVSCKVSGYTLTEAAIHWVRQAPGKGLEWMGGLDPQDGETVYAQQFKGRVTMTEDRSTDTAYMEVNNLRSEDTATYYCTTGDFSEFEPFSMDYFHFWGQGTVVTVAS
VL: EIVLTQSPATLSLSPGERATLSCRASQNVSSFLAWYQHKPGQAPRLLIYDASSRATDIPIRFSGSGSGTDFTLTISGLEPEDFAVYYCQQRRSWPPLTFGGGTKVEIKR
notes: also called anti-thrombin IgA; anti-IIa IgA
As usually defined, the Kd is a measure of binding affinity in units of concentration. As for B1, the Kd in assay [1] is roughly 12 nM. Also, in assay [2], the “thrombin hydrolysis of FVIII (feedback activation of thrombin via Xase complex)” value amounted to 7 fold and the “thrombin hydrolysis of platelet receptor PAR-1 peptide (activation of platelets)” value turned out to be 15 fold. Further, the “EC50 (read off the curve), Vi/V0 of S2238 cleavage by thrombin” value in assay [3] is roughly 10 nM. The binding result in assay [4] is reported as “no binding”.

B2: synthetic anti-exosite 1 IgG S30A variant antibody (antibody, V domains shown)
VH: B1 VH
VL: B1 VL with S30A
notes: also called ichorcumab S30A; ichorcumab
One may read the EC50 as the concentration at which the effect is half-maximal. A lower EC50 goes with higher potency in that assay. On to B2, for which the figures for the dissociation constant (Kd) in assay [5], in assay [6] and in assay [8] were 1.77 nM, 1.74 nM and 1.8 nM, respectively. In assay [7], this molecule showed an EC50 of 0.0126 µg/mL.

The values are drawn from US20160347862A1 (Janssen / Centocor, published 2016).
